Consider two substances from US20120149104A1.

Assay [1] addresses SNAP-25 peptide comprising amino acids 134-197 of SEQ ID NO: 5 (human). In words: SPR (BIAcore 3000), peptide on CM5 chip, antibody in flow.
For assay [2], the target named is SNAP-25 peptide comprising amino acids 134-206 of SEQ ID NO: 5 (human). The assay is described as above.

By Kd is commonly meant a measure of binding affinity in units of concentration. Read a high Kd as lower affinity. For orientation: koff means the rate constant with which the complex falls apart. By kon is commonly meant a measure of how fast the partners come together. Higher therefore signals faster complex formation.

As for “MC-6050 mouse α-SNAP-25 monoclonal antibody (Research & Diagnostic Antibodies)”, in assay [1], the Kd stood at 0.497 nM, the koff amounted to 0.000882 s⁻¹ and the on-rate constant (kon) came out at 1.78e+06 M⁻¹ s⁻¹. In assay [2], the Kd came to 19800 nM, the off-rate constant (koff) came out at 0.00607 s⁻¹ and the kon is 306 M⁻¹ s⁻¹.

In assay [1], “MC-6053 mouse α-SNAP-25 monoclonal antibody (Research & Diagnostic Antibodies)” came in with a Kd of 0.508 nM, a koff of 0.00118 s⁻¹ and an association rate constant (kon) of 2.32e+06 M⁻¹ s⁻¹. Besides, in assay [2], the dissociation constant (Kd) was determined as 240 nM and the koff amounted to 2.56e-05 s⁻¹.
